In patent US20220025023A1 (AC IMMUNE, published 2022):
Where no end group is shown, it is not given here.

Key:
TP-31 = target: T1, TP-31 (also: biotinylated, site not given here); experiment: indirect ELISA, biotinylated 15-mer on streptavidin plate, hybridoma supernatant
T1 construct: also called TP-31 peptide
T1 peptide: ERSGRFGGNPGGFGN
Method in brief: (§1)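 Biotinylated 15-mer peptides (5 μg/mL) spanning human TDP-43 aa 199-285 captured on streptavidin plates, blocked with 1% BSA 1 h 37° C. Hybridoma supernatant added at indicated dilutions, 2 h 37° C; AP anti-mouse IgG 1/1000, 1 h 37° C; pNPP read at 405 nm.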

TP-30 = target: T2, TP-30 (also: biotinylated, site not given here); experiment: as above
T2 construct: also called TP-30 peptide
T2 peptide: PKHNSNRQLERSGRF
Method in brief: as §1

TP-29 = target: T3, TP-29 (also: biotinylated, site not given here); experiment: as above
T3 construct: also called TP-29 peptide
T3 peptide: ISVHISNAEPKHNSN
Method in brief: as §1

TP-26 = target: T4, TP-26 (also: biotinylated, site not given here); experiment: as above
T4 construct: also called TP-26 peptide
T4 peptide: FRAFAFVTFADDQIA
Method in brief: as §1

TP-27 = target: T5, TP-27 (also: biotinylated, site not given here); experiment: as above
T5 construct: also called TP-27 peptide
T5 peptide: ADDQIAQSLCGEDLI
Method in brief: as §1

TP-28 = target: T6, TP-28 (also: biotinylated, site not given here); experiment: as above
T6 construct: also called TP-28 peptide
T6 peptide: CGEDLIIKGISVHIS
Method in brief: as §1

TP-23 = target: T7, TP-23 (also: biotinylated, site not given here); experiment: as above
T7 construct: also called TP-23 peptide
T7 peptide: TEDMTEDELREFFSQ
Method in brief: as §1

TP-24 peptide = target: T8, TP-24 peptide (human, also: biotinylated, site not given here); experiment: indirect ELISA, biotinylated 15-mer peptide on streptavidin plate, hybridoma supernatant
T8 construct: 15-mer of human TDP-43 from the library spanning aa 199-285; captured on streptavidin plates
T8 peptide: REFFSQYGDVMDVFI
Method in brief: as §1

TP-25 peptide = target: T9, TP-25 peptide (human, also: biotinylated, site not given here); experiment: as above
T9 construct: 15-mer of human TDP-43 from the library spanning aa 199-285; captured on streptavidin plates
T9 peptide: VMDVFIPKPFRAFAF
Method in brief: as §1

TDP-214 peptide = target: T10, TDP-214 peptide (human); experiment: indirect ELISA, 8-mer peptide library
T10 construct: 8-mer of human TDP-43; same ELISA method as for the biotinylated 15-mers
T10 peptide: YGDVMDVF
Method in brief: (§2)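 Hybridoma supernatant antibodies were tested by indirect ELISA on streptavidin-captured biotinylated 8-mer peptides with 7 aa overlap spanning human TDP-43 aa 210–231. Antibody binding was 2 h at 37 °C, then AP-conjugated anti-mouse IgG (1/1000, 1 h, 37 °C) was added. Read-out was pNPP absorbance at 405 nm.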

TDP-212 peptide = target: T11, TDP-212 peptide (human); experiment: indirect ELISA, 8-mer peptide library
T11 construct: 8-mer of human TDP-43; same ELISA method as for the biotinylated 15-mers
T11 peptide: SQYGDVMD
Method in brief: as §2

TDP-211 peptide = target: T12, TDP-211 peptide (human); experiment: indirect ELISA, 8-mer peptide library
T12 construct: 8-mer of human TDP-43; same ELISA method as for the biotinylated 15-mers
T12 peptide: FSQYGDVM
Method in brief: as §2

TDP-219 peptide = target: T13, TDP-219 peptide (human); experiment: indirect ELISA, 8-mer peptide library
T13 construct: 8-mer of human TDP-43; same ELISA method as for the biotinylated 15-mers
T13 peptide: DVFIPKPF
Method in brief: as §2

TDP-224 peptide = target: T14, TDP-224 peptide (human); experiment: indirect ELISA, 8-mer peptide library
T14 construct: 8-mer of human TDP-43; same ELISA method as for the biotinylated 15-mers
T14 peptide: KPFRAFAF
Method in brief: as §2

TDP-221 peptide = target: T15, TDP-221 peptide (human); experiment: indirect ELISA, 8-mer peptide library
T15 construct: 8-mer of human TDP-43; same ELISA method as for the biotinylated 15-mers
T15 peptide: FIPKPFRA
Method in brief: as §2

TDP-220 peptide = target: T16, TDP-220 peptide (human); experiment: indirect ELISA, 8-mer peptide library
T16 construct: 8-mer of human TDP-43; same ELISA method as for the biotinylated 15-mers
T16 peptide: VFIPKPFR
Method in brief: as §2

TDP-217 peptide = target: T17, TDP-217 peptide (human); experiment: indirect ELISA, 8-mer peptide library
T17 construct: 8-mer of human TDP-43; same ELISA method as for the biotinylated 15-mers
T17 peptide: VMDVFIPK
Method in brief: as §2

TDP-218 peptide = target: T18, TDP-218 peptide (human); experiment: indirect ELISA, 8-mer peptide library
T18 construct: 8-mer of human TDP-43; same ELISA method as for the biotinylated 15-mers
T18 peptide: MDVFIPKP
Method in brief: as §2

TDP-216 peptide = target: T19, TDP-216 peptide (human); experiment: indirect ELISA, 8-mer peptide library
T19 construct: 8-mer of human TDP-43; same ELISA method as for the biotinylated 15-mers
T19 peptide: DVMDVFIP
Method in brief: as §2

TDP-213 peptide = target: T20, TDP-213 peptide (human); experiment: indirect ELISA, 8-mer peptide library
T20 construct: 8-mer of human TDP-43; same ELISA method as for the biotinylated 15-mers
T20 peptide: QYGDVMDV
Method in brief: as §2

TDP-210 peptide = target: T21, TDP-210 peptide (human); experiment: indirect ELISA, 8-mer peptide library
T21 construct: 8-mer of human TDP-43; same ELISA method as for the biotinylated 15-mers
T21 peptide: FFSQYGDV
Method in brief: as §2

TDP-222 peptide = target: T22, TDP-222 peptide (human); experiment: indirect ELISA, 8-mer peptide library
T22 construct: 8-mer of human TDP-43; same ELISA method as for the biotinylated 15-mers
T22 peptide: IPKPFRAF
Method in brief: as §2

TDP-223 peptide = target: T23, TDP-223 peptide (human); experiment: indirect ELISA, 8-mer peptide library
T23 construct: 8-mer of human TDP-43; same ELISA method as for the biotinylated 15-mers
T23 peptide: PKPFRAFA
Method in brief: as §2

[1] = target: T24, recombinant human full-length TDP-43 (human, UniProt Q13148 1-414); experiment: Luminex bead assay, antibody serial dilution, FL TDP-43 beads
T24 construct: Recombinant full-length protein; also called FL TDP-43; recFL TDP-43

TDP-215 peptide = target: T25, TDP-215 peptide (human); experiment: indirect ELISA, 8-mer peptide library, OD 405 nm
T25 construct: same ELISA method as for the biotinylated 15-mers
T25 peptide: GDVMDVFI
Method in brief: as §2

T24 sequence (Q13148 whole entry): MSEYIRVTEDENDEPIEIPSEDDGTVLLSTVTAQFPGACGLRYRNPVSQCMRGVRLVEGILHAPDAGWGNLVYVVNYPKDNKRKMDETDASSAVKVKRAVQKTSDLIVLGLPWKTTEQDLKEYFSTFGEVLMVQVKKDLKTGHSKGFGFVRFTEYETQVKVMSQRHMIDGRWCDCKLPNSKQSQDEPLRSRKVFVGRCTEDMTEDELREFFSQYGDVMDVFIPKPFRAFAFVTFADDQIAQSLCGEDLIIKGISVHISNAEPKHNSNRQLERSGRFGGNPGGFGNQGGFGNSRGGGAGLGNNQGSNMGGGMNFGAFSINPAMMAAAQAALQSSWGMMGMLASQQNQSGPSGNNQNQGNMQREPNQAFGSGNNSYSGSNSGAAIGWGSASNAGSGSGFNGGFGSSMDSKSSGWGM

B1: ACI-7062-406E3-Ab2 (antibody, IgG2a, V domains shown)
VH: QVTLKESGPAILQPSQTLSLTCSFSGFSLTTYGIGVGWIRQPSGKGLEWLAHIWWNDNKYYNTALKSRLTVSKDTSNNQVFLKIASVDTADTATYYCARVYGNLYYFAYWGQGTTLTVSS
VL: DVLMTQTPLSLPVSLGDRASISCRSSQSIVHRSGNTYLEWYLQKPGQSPKLLIYKVSNRFSGVPDRFSGSGSGTDFTLKISRVEAEDLGVYYCFQGSHVPTFGAGTKLELKR
notes: also called 406E3G10; clone 6
binding result (TP-31): no binding | binding result (TP-30): no binding | binding result (TP-29): no binding | binding result (TP-26): no binding | binding result (TP-27): no binding | binding result (TP-28): no binding | binding result (TP-23): no binding | OD (TP-24 peptide): 3.4 O.D. (405 nm) | OD (TP-25 peptide): 0.9 O.D. (405 nm) | binding result (TDP-214 peptide): no binding | binding result (TDP-212 peptide): no binding | binding result (TDP-211 peptide): no binding | binding result (TDP-219 peptide): no binding | binding result (TDP-224 peptide): no binding | binding result (TDP-221 peptide): no binding | binding result (TDP-220 peptide): no binding | binding result (TDP-217 peptide): no binding | binding result (TDP-218 peptide): no binding | binding result (TDP-216 peptide): no binding | binding result (TDP-213 peptide): no binding | binding result (TDP-210 peptide): no binding | binding result (TDP-222 peptide): no binding | binding result (TDP-223 peptide): no binding | EC50 [1]: 10 pM | binding result (TDP-215 peptide): binds
